Test system: Bacillus subtilis
Assay: cleaved RNA product abundance (RNA/gDNA barcode ratio) relative to median wild-type variant (ratio to wild type); higher = more accumulation of the downstream cleavage product
In short: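 The B. subtilis chromosome carried reporter mRNAs, truncated aprE or tetM, containing barcoded RNase Y cleavage-site windows mutagenized using oligos with a 9% error rate. After growth in LB at 37°C from OD600 0.0003 to 0.3, cleaved RNA was gel-selected, reverse transcribed and barcode-sequenced next to genomic DNA barcodes, with UMI collapsing. Each construct's RNA:gDNA barcode ratio was scaled to the median construct with the unmutated site. That scaled ratio is reported as cleaved product abundance.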

[1] = experiment (reporter, strain, medium): exp 2b: truncated aprE reporter, strain BJT200, cleavage site: cggR-gapA (positions -7 to +36 mutated)
[2] = experiment (reporter, strain, medium): exp 4a: truncated aprE reporter, strain BJT201 with 2% xylose (RNase J1 expressed), cleavage site: cggR-gapA (positions -7 to +36 mutated)
[3] = experiment (reporter, strain, medium): exp 8a: truncated aprE reporter, strain BJT201 with 2% xylose (RNase J1 expressed), cleavage site: glnRA (positions -5 to +31 mutated)

| Sequence | cleaved RNA product abundance [1] | cleaved RNA product abundance [2] | cleaved RNA product abundance [3] | also measured |
| --- | --- | --- | --- | --- |
| ACAGACGAAGGAGCCGCAAAGAAGTTATTAAGGGATGAATCATACCTCAATATAAATATCTCTCACTTATTTAAA | 0.164 | 0.215 |  |  |
| ACAGACGAAGGAGCCGCAAAGAAGTTATAAAGGGATGTATAATCCCTCAATATAAATATCTCTCACTTATTTAAA | 0.322 | 0.401 |  |  |
| ACAGACGAAGGAGCCGCAAACAAGTTATTAAGGGATGAATAATCCCTCAATATAAATAACTCTCACTTATTTAAA | 0.576 |  |  |  |
| ACAGACGAAGGAGCCGCACAGAAGTTATTAAGGGATGAATAATCACTCAATATAAATATCTCTCACTTATTTAAA |  | 0.125 |  |  |
| ACAGACGAAGGAGCCGCAAAGAAGTTATTAACGGATGAATAATCCCTCAACATAAATATCTCTCACTTATTTAAA |  | 0.172 |  |  |
| CGACATGTCCCGCTTCTTTCATTAATCCGTTAGCAACTGTTTTCCTATATACATTTACCTTTTAAGAGGAGGAAT |  |  | 0.539 |  |
| CGACATGTCCCGCTTCTTTCATTAATCCGTTAGCAACTGATTTGCAATATACATTTACCTTTTAAGAGGAGGAAT |  |  | 0.49 |  |
| CGACATGTCCCGCTTCTTTCATTACTCCGTTTGCAACTGTTTTGCTATATACATTTACCTTTTAAGAGGAGGAAT |  |  | 0.667 |  |
| ACAGACGAAGGAGCCGCATAGAAGTTATTAATGGATGAATAATCCCTCAATATAAATATCTCTCACTTATTTAAA | 0.142 | 0.214 |  |  |
| ACAGACGAAGGAGCCGCAAAGAAGTTATTAACGGATGAATTATCCCTCAATATAAATATCTCTCACTTATTTAAA | 0.12 | 0.179 |  |  |
| ACAGACGAAGGAGCCGCAAAGAAGTTATTAAGGGATGAATAATCCCTCATTAAAAATATCTCTCACTTATTTAAA | 0.116 |  |  |  |
| CGACATGTCCCGCTTCTTTCATTAATCCGTTAGCAACTGTTTTGGTACATACATTTACCTTTTAAGAGGAGGAAT |  |  | 0.119 |  |
| ACAGACGAAGGAGCCGCAAAGAAGTTAATAAGGGATGAATAAGCCCTCAATATAAATATCTCTCACTTATTTAAA |  | 0.197 |  |  |
| ACAGACGAAGGAGCCGCAAAGAAGTTATTAAGTGATGAATAGTCCCTCAATATAAATATCTCTCACTTATTTAAA |  | 0.14 |  |  |
| CGACATGTCCCGCTTCTTTCATTATTCTGTTAGCAACTGTTTTGCTATATACATTTACCTTTTAAGAGGAGGAAT |  |  | 1.94 |  |
| ACAGACGAAGGAGCCGCAAAGAAGTTATTAATGCATGAATAATCCCTCAATATAAATATCTCTCACTTATTTAAA | 0.0867 | 0.0823 |  |  |
| ACAGACGAAGGAGCCGCAAAGAAGTTATTAAGGGATGAATAATCTATCAATATAAATATCTCTCACTTATTTAAA |  | 0.135 |  |  |
| CGACATGTCCCGCTTCTTTCATTAATCCGTTTGCAACTGTTTTGCTATATACATTTAACTTTTAAGAGGAGGAAT |  |  | 0.827 |  |
| ACAGACGAAGGAGCCGCAAAGAATTTATTAAGGGATGAATAATCCCTCAATATACATATCTCTCACTTATTTAAA |  | 0.606 |  |  |
| ACAGACGAAGGAGCCGCAAAGAAGTTGTTAAAGGATGAATAATCCCTCAATATAAATATCTCTCACTTATTTAAA |  | 0.0874 |  |  |
| ACAGACGAAGGAGCCGCAAAGAAGTTACTAAGGCATGAATAATCCCTCAATATAAATATCTCTCACTTATTTAAA |  | 0.112 |  |  |
| ACAGACGAAGGAGCCGCAAAGAAGTTTTAAGGGATGAATAATCCCTCAATATAAATATCTCTCACTTATTTAAAG |  | 0.15 |  |  |
| ACAGACGAAGGAGCCGCAAAGAAGTTATTAAGGGATGAATAAACCCTCTATATAAATATCTCTCACTTATTTAAA | 0.151 |  |  |  |
| CGACATGTCCCGCTTCTTTCATTAATCCGTTAGAAACTGTTTTGCTATATAAATTTACCTTTTAAGAGGAGGAAT |  |  | 0.256 |  |
| ACAGACGAAGGAGCCGCAAAGAAGTTATTAAGGCTTGAATAATCCCTCAATATAAATATCTCTCACTTATTTAAA | 0.115 | 0.11 |  |  |
| ACAGACGAAGGAGCCGCAAAGTAGTTATAAAGGGATGAATAATCCCTCAATATAAATATCTCTCACTTATTTAAA |  | 0.301 |  |  |
| CGACATGTCCCGCTTCTTTCATTAGTCCGTTAGCAACTGTTTTCCTATATACATTTACCTTTTAAGAGGAGGAAT |  |  | 0.352 |  |
| CGACATGTCCCGCTTCTTTCATTATTCCGTTAGCAACTGTTTTGCTATATACATTTACCTTTTAAGAGGAGGAAT |  |  | 1.42 |  |

| Sequence | cleaved RNA product abundance [1] | cleaved RNA product abundance [2] | cleaved RNA product abundance [3] | also measured |
| --- | --- | --- | --- | --- |
| ACAGACGAAGGAGCCGCAAAGAAGTTATTAAGGCATGAATAATTCCTCAATATAAATATCTCTCACTTATTTAAA | 0.107 | 0.133 |  |  |
| CGACATGTCCCGCTTCTTTCATTAATCCGATAGCAACTGTTTTTCTATATACATTTACCTTTTAAGAGGAGGAAT |  |  | 0.413 |  |
| ACAGACGAAGGAGCCGCAAAGAAGTTATTAACGGATGAATAACCCCTCAATATAAATATCTCTCACTTATTTAAA |  | 0.0802 |  |  |
| ACAGACGAAGGAGCCGCAAAGAAGTAATTAAGGGATGAATTATCCCTCAATATAAATATCTCTCACTTATTTAAA |  | 0.355 |  |  |
| ACAGACGAAGGAGCCGCAAAGATGTCATTAAGGGATGAATAATCCCTCAATATAAATATCTCTCACTTATTTAAA |  | 0.205 |  |  |
| ACAGACGAAGGAGCCGCAAAGAAGTTATTAAGGGATGAATAATCCCATAATATAAATATCTCTCACTTATTTAAA |  | 0.715 |  |  |
| ACAGACGAAGGAGCCGCAAAGAAGTTTTTAAGGGATGAATAATCCCTCATTATAAATATCTCTCACTTATTTAAA |  | 0.405 |  |  |
| ACAGACGAAGGAGCCGCAAACAAGTTATTAAGGGATGAATAATACCTCAATATAAATATCTCTCACTTATTTAAA | 0.107 | 0.12 |  |  |
| ACAGACGAAGGAGCCGCAAAGAAGTTATTTAGGGATGAATAATCCCTCAATATAATTATCTCTCACTTATTTAAA |  | 0.52 |  |  |
| ACAGACGAAGGAGCCGCAAAGAAGTTATTAAGGGTTGAATAATCTCTCAATATAAATATCTCTCACTTATTTAAA |  | 0.244 |  |  |
| ACAGACGAAGGAGCCGCAAAGAATTTATTAAGGGATGAATAATCCCCCAATATAAATATCTCTCACTTATTTAAA | 0.189 | 0.202 |  |  |
| ACAGACGAAGGAGCCGCAAATAAGTTATTAAAGGATGAATAATCCCTCAATATAAATATCTCTCACTTATTTAAA | 0.195 | 0.218 |  | cleaved RNA product abundance (experiment (reporter, strain, medium): exp 6: tetM reporter, strain 168, cleavage site: cggR-gapA (positions -7 to +36 mutated)): 0.19 |
| ACAGACGAAGGAGCCGCAAGGAAGTTATAAAGGGATGAATAATCCCTCAATATAAATATCTCTCACTTATTTAAA |  | 0.578 |  |  |
| ACAGACGAAGGAGCCGCAAAGAAGTTATTAAGGGATGAATAATACCTCAATACAAATATCTCTCACTTATTTAAA |  | 0.0658 |  |  |
| ACAGACGAAGGAGCCGCAAAGAAGTAATTAAGGGATGAATAATCCCTCAATATAATTATCTCTCACTTATTTAAA | 0.151 | 0.199 |  |  |
| CGACATGTCCCGCTTCTTTCATTAATTCGTTAGCAAATGTTTTGCAATATACATTTACCTTTTAAGAGGAGGAAT |  |  | 0.563 |  |
| ACAGACGAAGGAGCCGCAAAGAAGTTATTAATGGATGAATAAGCCCTCAATATAAATATCTCTCACTTATTTAAA |  | 0.107 |  |  |
| CGACATGTCCCGCTTCTTTCATTAATCCGTTAGCAACTGTTTTTCTAGATACATTTACCTTTTAAGAGGAGGAAT |  |  | 0.378 |  |
| ACAGACGAAGGAGCCGCAAAAAAGTTATTAAAGGATGAATAATCCCTCAATATAAATATCTCTCACTTATTTAAA | 0.164 | 0.224 |  |  |
| CGACATGTCCCGCTTCTTTCATTAATCCTTTAGCAACTGTTTTGATATATACATTTACCTTTTAAGAGGAGGAAT |  |  | 0.374 |  |
| CGACATGTCCCGCTTCTTTCATTAATCCGATAGCAACTCTTTTGCTATATACATTTACCTTTTAAGAGGAGGAAT |  |  | 0.19 |  |
| ACAGACGAAGGAGCCGCAAAGAAGTTATTAAGCGATGAATAATCCCTAAATATAAATATCTCTCACTTATTTAAA | 0.132 | 0.207 |  |  |
| CGACATGTCCCGCTTCTTTCATTAATCCGTTAGAAACTGTTTTGCTGTATACATTCATCTTTTAAGAGGAGGAAT |  |  | 0.0887 |  |
| CGACATGTCCCGCTTCTTTCATTAATTCGTTAACAACTGTTTTGCTATATACATTTACCTTTTAAGAGGAGGAAT |  |  | 0.209 |  |
| ACAGACGAAGGAGCCGCAAAGAAGTTATTAACGGATGAACAATCCCTCAATATAAATATCTCTCACTTATTTAAA | 0.0917 |  |  |  |
| CGACATGTCCCGCTTCTTTCATTAATCTGTTAGCAACTGTTTTACTATATACATTTACCTTTTAAGAGGAGGAAT |  |  | 0.541 |  |
| CGACATGTCCCGCTTCTTTCATTAATCCGTTAGCAACTGTTTTGCTATATAGAATTACCTTTTAAGAGGAGGAAT |  |  | 1.14 |  |

Reference: the supplement of paper PMC11780869
